Measured values published in PMC9097366 (Cell reports, 2022).
Substitutions are numbered along the chain they refer to.

B1: S. cerevisiae Atg23 FL (recombinant, purified) (natural protein, UniProt Q06671 1-453, looked up)
chain: MELNQVLEKKEQILQYLGTLVGLHEKALSDVNSASQVTSIRKDITICLNDLCRINDLLVSHDGLLKREIGSLLRDKQELLELNEREQLLWKERKSWHIKQETDAAPADYVIDKDAIITISSHHRTSLNKYIESVGAENTILSNTDDSDAMIEEVQNAESSADQMIRNYKLLQLSHKQAKSEIIRLETLLRDFKKDNKFIEEELKRQSGRIRSEMGNIDFHLSKIEESKHQLMKRIGFESPLTQEKSLSEKIFNLRLSSADEDYNERQTINMKNFVHMKDLIELKIEDLQEQLMRNKNESSTVLTQRELWLDCQKKVGDLESKLITKLRSSSNSKIPPNEMSEMINSTIQYLNNLLDSSDEKLTTTLISNERDVLSKACEELHSESTTAQDGSSALPSKPIDIHKSHKGSNASSNLKQPSTPSFLVASKSPPKIGISESVVNANKNDAISKKVE
B2: Atg23 M5 (recombinant, purified) (natural protein, S. cerevisiae, UniProt Q06671 1-453, looked up)
chain: B1 chain with K66E, R67E, R74E, R85E, K296E
B3: Atg23 M3 (recombinant, purified) (natural protein, S. cerevisiae, UniProt Q06671 1-453, looked up)
chain: B1 chain with K66E, R67E
B4: Atg23 M4 (recombinant, purified) (natural protein, S. cerevisiae, UniProt Q06671 1-453, looked up)
chain: B1 chain with K66E, R67E, K296E

Molecular target: the molecule itself
Assay: AUC

Stoichiometry N, 2:
B1, B2, B3, B4
